Laboratory results reported in US20210198647A1 (TEXAS TECH UNIVERSITY SYSTEM, published 2021).
Ends that are not written are not given here.

Assays:
Assay in all cases: cell-based or functional assay
[1] = target: Neurolysin (Nln) as used for the A50 and Amax values of Tables 2 and 5
[2] = target: recombinant human neprilysin (R & D systems, product number 1182-ZNC) (human, UniProt P08473 52-750)
[3] = target: recombinant human ACE2 (R & D systems, product number 933-ZN) (human, UniProt Q9BYF1 18-740)
Chain of recombinant human ACE2 (R & D systems, product number 933-ZN) (Q9BYF1 18-740 limits assumed): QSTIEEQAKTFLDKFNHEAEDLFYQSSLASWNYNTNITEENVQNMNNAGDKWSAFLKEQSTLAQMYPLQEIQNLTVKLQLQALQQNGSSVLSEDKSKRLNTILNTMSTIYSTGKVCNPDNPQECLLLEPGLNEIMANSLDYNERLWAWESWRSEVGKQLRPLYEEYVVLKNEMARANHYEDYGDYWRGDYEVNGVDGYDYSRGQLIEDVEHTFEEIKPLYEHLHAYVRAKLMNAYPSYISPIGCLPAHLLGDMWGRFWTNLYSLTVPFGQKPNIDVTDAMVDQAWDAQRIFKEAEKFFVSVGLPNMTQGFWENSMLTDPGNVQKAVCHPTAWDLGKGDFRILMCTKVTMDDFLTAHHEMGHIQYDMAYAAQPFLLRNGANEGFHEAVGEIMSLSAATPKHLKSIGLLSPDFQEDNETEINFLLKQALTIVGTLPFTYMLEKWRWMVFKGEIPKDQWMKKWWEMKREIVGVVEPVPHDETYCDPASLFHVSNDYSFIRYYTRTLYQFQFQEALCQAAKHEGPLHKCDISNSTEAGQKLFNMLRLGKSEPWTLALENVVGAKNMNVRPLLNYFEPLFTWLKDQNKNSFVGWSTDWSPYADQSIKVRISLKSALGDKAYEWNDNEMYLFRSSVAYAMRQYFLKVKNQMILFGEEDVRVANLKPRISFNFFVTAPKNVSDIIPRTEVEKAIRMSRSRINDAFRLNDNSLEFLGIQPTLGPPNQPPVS

[4] = target: recombinant human thimet oligopeptidase (R & D systems, product number 3439-ZN) (human, UniProt P52888 1-689, limits assumed)
Chain of recombinant human thimet oligopeptidase (R & D systems, product number 3439-ZN) (P52888 whole entry): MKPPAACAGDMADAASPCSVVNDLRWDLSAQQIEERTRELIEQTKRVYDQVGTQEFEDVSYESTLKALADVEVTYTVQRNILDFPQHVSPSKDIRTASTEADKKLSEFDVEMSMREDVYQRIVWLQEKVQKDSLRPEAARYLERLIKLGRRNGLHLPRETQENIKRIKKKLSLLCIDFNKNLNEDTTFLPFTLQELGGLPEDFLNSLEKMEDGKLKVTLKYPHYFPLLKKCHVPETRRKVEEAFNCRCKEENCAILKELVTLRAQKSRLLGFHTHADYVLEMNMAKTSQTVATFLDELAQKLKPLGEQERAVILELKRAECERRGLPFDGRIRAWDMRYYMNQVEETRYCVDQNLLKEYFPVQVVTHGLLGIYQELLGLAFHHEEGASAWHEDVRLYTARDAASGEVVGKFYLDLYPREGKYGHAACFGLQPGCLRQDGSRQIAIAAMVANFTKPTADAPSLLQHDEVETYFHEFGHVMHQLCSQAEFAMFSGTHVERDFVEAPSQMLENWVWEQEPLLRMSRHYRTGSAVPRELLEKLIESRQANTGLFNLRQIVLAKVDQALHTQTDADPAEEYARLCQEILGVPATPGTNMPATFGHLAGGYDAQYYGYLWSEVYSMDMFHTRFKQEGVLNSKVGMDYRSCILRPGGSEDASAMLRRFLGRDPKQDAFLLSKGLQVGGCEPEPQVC

[5] = target: recombinant human angiotensin converting enzyme (R & D systems, product number 929-ZN) (human, UniProt P12821 30-1261)
Chain of recombinant human angiotensin converting enzyme (R & D systems, product number 929-ZN) (P12821 30-1261 limits assumed): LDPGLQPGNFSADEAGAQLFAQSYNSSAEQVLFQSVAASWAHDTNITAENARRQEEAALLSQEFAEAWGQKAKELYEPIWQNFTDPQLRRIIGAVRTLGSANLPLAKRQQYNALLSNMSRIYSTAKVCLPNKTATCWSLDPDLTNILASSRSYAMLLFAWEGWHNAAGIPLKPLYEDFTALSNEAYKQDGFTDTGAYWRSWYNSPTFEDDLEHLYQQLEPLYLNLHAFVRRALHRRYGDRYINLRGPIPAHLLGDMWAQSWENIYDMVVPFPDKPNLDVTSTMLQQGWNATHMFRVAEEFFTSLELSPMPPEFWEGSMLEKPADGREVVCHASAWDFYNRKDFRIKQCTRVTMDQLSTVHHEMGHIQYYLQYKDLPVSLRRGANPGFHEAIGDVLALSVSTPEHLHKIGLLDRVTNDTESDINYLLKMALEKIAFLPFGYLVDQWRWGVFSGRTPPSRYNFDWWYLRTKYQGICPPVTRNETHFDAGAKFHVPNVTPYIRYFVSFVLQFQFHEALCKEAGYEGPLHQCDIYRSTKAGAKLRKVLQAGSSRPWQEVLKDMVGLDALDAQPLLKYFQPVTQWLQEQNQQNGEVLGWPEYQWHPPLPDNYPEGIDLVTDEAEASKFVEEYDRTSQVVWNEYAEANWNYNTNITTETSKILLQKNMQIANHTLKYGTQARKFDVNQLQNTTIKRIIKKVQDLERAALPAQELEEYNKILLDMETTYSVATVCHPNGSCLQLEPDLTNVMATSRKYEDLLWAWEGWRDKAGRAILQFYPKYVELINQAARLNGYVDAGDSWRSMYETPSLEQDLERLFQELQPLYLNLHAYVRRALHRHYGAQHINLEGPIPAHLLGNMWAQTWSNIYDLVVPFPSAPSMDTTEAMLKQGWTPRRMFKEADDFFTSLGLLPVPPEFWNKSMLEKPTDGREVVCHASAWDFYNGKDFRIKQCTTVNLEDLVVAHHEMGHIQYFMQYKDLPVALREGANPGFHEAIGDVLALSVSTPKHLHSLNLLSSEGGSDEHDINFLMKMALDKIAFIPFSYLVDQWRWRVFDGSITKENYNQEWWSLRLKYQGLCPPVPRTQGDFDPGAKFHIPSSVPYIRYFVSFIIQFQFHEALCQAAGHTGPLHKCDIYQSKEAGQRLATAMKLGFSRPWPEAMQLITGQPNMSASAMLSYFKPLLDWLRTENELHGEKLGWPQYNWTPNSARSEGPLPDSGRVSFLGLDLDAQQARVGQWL

Chain of recombinant human neprilysin (R & D systems, product number 1182-ZNC) (P08473 52-750 limits assumed): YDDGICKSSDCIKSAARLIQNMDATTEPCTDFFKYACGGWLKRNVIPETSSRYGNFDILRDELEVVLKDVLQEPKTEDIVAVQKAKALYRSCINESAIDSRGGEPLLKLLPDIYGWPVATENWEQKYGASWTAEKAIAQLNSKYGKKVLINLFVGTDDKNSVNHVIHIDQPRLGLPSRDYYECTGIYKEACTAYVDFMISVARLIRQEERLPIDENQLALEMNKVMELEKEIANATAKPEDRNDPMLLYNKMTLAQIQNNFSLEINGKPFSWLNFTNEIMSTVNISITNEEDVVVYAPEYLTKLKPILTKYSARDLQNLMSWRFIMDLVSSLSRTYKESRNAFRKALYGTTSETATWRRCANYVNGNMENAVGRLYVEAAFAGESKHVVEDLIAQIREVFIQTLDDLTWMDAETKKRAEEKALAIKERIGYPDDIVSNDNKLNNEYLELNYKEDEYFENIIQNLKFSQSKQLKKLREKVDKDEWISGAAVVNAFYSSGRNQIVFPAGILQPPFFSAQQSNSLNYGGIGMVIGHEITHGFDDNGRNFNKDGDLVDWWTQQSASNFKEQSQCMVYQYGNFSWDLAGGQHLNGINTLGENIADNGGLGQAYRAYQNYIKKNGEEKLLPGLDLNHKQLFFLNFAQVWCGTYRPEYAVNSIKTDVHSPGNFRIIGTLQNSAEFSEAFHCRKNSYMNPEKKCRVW

Binder	Amax [1] [%]	inhibition of activity at 300 µM (quenched fluorescent substrate hydrolysis) [2] [%]	inhibition of activity at 300 µM (quenched fluorescent substrate hydrolysis) [3] [%]	inhibition of activity at 300 µM (quenched fluorescent substrate hydrolysis) [4] [%]	inhibition of activity at 300 µM (quenched fluorescent substrate hydrolysis) [5] [%]	A50 [1] [µM]
HY [NlnA#1, NSC 374121, L-histidyl-L-tyrosine]	467	2.9	13.4	25.9	22.6	–
HF [His-Phe]	573	–	–	–	–	130
HW [His-Trp]	440	–	–	–	–	–
HP [His-Pro]	502	–	–	–	–	–
His-His (also: mixture of D- and L-His at both positions) [NlnA#2, NSC 523374, D,L-histidyl-D,L-histidine]	–	1.6	10.9	15.6	12.2	–
